Test results: patent US20250032632A1 (published 2025)

Assays:
[1] = target: T1, human cMET-Fc fusion protein (extracellular domain of human cMET fused to human Fc) (human, UniProt P08581 25-932); test: SPR, hMET-Fc
T1 construct: Mature cMET is cleaved into alpha and beta subunits; also called hMET-Fc; hMet-Fc

[2] = target: T2, human cMET (ELISA antigen) (human, UniProt P08581 25-932, limits assumed); test: ELISA on human cMET, relative to parental P3D12
T2 construct: also called hMET

rat cMET-Fc = target: T3, rat cMET-Fc (rat, UniProt P97523 25-935); test: SPR, rMET-Fc
T3 construct: Construct named only as rMET-Fc; also called rMET-Fc; not shown: Fc part
T3 sequence (P97523 25-935 limits assumed): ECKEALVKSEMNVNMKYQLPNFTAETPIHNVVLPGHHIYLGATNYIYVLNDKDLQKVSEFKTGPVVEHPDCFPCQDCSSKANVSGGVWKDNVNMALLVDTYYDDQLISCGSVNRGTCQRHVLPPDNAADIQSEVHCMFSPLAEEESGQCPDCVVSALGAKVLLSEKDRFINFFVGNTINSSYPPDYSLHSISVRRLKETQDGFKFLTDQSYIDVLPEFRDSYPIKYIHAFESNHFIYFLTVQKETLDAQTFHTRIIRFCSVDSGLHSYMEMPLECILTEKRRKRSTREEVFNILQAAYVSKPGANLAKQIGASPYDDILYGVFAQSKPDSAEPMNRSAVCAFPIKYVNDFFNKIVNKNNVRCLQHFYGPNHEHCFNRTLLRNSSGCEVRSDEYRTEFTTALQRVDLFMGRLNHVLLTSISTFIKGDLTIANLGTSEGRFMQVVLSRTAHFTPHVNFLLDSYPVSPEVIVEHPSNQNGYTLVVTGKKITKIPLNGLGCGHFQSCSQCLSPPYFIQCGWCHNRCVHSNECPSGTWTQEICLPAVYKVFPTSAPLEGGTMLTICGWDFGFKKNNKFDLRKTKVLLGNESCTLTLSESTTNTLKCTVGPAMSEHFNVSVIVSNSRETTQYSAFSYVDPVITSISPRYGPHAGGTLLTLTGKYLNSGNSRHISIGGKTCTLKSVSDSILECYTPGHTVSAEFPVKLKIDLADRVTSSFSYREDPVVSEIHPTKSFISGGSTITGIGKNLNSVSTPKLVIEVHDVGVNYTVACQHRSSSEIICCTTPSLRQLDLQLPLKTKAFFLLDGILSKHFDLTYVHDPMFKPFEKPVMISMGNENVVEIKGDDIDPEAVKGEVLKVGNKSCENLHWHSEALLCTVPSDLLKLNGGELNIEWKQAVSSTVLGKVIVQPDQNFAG

rat cMET (ELISA antigen) = target: T4, rat cMET (ELISA antigen) (rat, UniProt P97523 25-935, limits assumed); test: ELISA on rat cMET, relative to parental P3D12
T4 construct: also called rMET
T4 sequence (P97523 25-935 limits assumed): as above

[3] = target: T5, mutant cMET (E168D) Fc recombinant fusion protein (human, UniProt P08581 25-932); test: binding ELISA, plate-coated E168D cMET-Fc, goat anti-human IgG (H+L)-HRP (FIG. 16)
T5 construct: also called E168D cMET; E168D cMET extracellular domain fused to human IgG1 Fc; not shown: Fc of human IgG1
T5 sequence (P08581 25-932 E168D): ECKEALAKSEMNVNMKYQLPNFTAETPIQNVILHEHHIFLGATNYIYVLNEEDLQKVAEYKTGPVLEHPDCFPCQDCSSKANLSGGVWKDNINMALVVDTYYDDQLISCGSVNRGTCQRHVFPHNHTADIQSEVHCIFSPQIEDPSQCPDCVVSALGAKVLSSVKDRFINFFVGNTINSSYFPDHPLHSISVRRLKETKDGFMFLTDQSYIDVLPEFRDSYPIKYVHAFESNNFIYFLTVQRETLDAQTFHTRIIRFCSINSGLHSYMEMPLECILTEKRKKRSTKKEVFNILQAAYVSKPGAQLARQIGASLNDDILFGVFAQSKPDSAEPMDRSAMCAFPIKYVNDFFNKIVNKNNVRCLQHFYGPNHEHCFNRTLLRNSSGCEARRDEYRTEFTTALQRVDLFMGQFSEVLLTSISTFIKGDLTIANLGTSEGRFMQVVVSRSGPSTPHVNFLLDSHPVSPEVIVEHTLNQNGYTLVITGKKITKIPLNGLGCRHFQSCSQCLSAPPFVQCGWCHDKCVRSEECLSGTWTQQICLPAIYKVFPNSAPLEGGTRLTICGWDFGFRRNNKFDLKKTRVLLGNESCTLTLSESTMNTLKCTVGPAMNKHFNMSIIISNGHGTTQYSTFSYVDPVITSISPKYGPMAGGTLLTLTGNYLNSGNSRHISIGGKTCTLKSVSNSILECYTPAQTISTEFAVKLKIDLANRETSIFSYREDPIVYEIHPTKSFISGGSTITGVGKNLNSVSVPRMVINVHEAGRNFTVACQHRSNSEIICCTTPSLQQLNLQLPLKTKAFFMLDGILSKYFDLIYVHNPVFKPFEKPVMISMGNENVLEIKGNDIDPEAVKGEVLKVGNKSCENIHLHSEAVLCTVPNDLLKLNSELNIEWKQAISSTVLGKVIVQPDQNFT
Experimental: The E168D mutation is a somatic mutation found in small cell lung cancer (SCLC). The mutation is located in the Sema domain and leads to constitutive activation of the cMET receptor. Abundance of somatic mutations of cMET are very low. E168D occurs in 0.8% to 3% of SCLC patients. A binding ELISA was performed with human cMET or E168D cMET extracellular domains fused to human IgG1 Fc. cMET proteins were coated on a plate overnight and the samples titrated and detected with a goat anti-human IgG (H+L)-HRP. EC₅₀s were determined using sigmoidal dose response fit.

[4] = target: T6, Recombinant Human c-Met-10X His (human, UniProt P08581 25-932); test: cMET binding ELISA, plate-bound human cMET (FIGS. 24A, 24B)
T6 construct: In-house reagent (Lot #140924TA); not shown: 10X His tag
T6 sequence (P08581 25-932 limits assumed): as the sequence (P08581 25-932 E168D) above, with D144E counted along it
Experimental: The antibody drug conjugates were tested at increasing concentrations (x-axis, concentration of antibody-drug conjugate (μg/ml)) for their ability to bind plate-bound human cMET. Relative binding strength is indicated by luminescence (y-axis).
PMID: 5257969. The payload of chemical formula II was site-specifically conjugated to each of the mutated cysteine residues using Maleimide chemistry. The quality and extent of conjugation was assessed by a determination of total recovery, aggregate content, monomer content and drug-antibody ratio (DAR).

T2 sequence (P08581 25-932 limits assumed): as the sequence (P08581 25-932 E168D) above, with D144E counted along it
T1 sequence (P08581 25-932): as the sequence (P08581 25-932 E168D) above, with D144E counted along it

Row | Kd [1] | ELISA hMET vs parental [2] | Kd (rat cMET-Fc) | ELISA rMET vs parental (rat cMET (ELISA antigen)) | binding result [3] | binding result [4] | Binder
1 | 0.3 nM | 0.7 fold vs parental | 7 nM | 0.9 fold vs parental | binds |  | hD12 (humanized anti-cMET antibody of IgG2 isotype, VH-cdr SEQ ID NO: 108 + VL-fra SEQ ID NO: 47) (antibody, also called G2ckf) heavy: QVQLVQSGAEVKKPGASVKVSCKASGYTFTSYWMHWVKQAPGQGLDWIGYIKPSTDNTEYNQKFKDKATLTADKSTSTAYMELSSLRSEDTAVYYCARSYGNYPLMDYWGQGTTVTVSSASTKGPSVFPLAPCSRSTSESTAALGCLVKDYFPEPVTVSWNSGALTSGVHTFPAVLQSSGLYSLSSVVTVPSSNFGTQTYTCNVDHKPSNTKVDKTVERKCCVECPPCPAPPVAGPSVFLFPPKPKDTLMISRTPEVTCVVVDVSHEDPEVQFNWYVDGVEVHNAKTKPREEQFNSTFRVVSVLTVVHQDWLNGKEYKCKVSNKGLPAPIEKTISKTKGQPREPQVYTLPPSREEMTKNQVSLTCLVKGFYPSDIAVEWESNGQPENNYKTTPPMLDSDGSFFLYSKLTVDKSRWQQGNVFSCSVMHEALHNHYTQKSLSLSPGK light: QIVLTQSPAILSLSPGERATLSCSASSSVTSNYLYWYQQKPGSSPKLLIYSTSNLASGVPARFSGSGSGTSYTLTISSLEAEDAASYFCHQWSSYPPTFGSGTKLEIKRTVAAPSVFIFPPSDEQLKSGTASVVCLLNNFYPREAKVQWKVDNALQSGNSQESVTEQDSKDSTYSLSSTLTLSKADYEKHKVYACEVTHQGLSSPVTKSFNRGEC
2 |  |  |  |  |  | binds | hD12-T289C-II (hD12 T289C variant site-specifically conjugated to the payload of chemical formula II) (antibody, human IgG2, kappa, payload of chemical formula II on Cys 289 (EU numbering), maleimide chemistry, Antibody-drug conjugate, IgG2) heavy: QVQLVQSGAEVKKPGASVKVSCKASGYTFTSYWMHWVKQAPGQGLDWIGYIKPSTDNTEYNQKFKDKATLTADKSTSTAYMELSSLRSEDTAVYYCARSYGNYPLMDYWGQGTTVTVSSASTKGPSVFPLAPCSRSTSESTAALGCLVKDYFPEPVTVSWNSGALTSGVHTFPAVLQSSGLYSLSSVVTVPSSNFGTQTYTCNVDHKPSNTKVDKTVERKCCVECPPCPAPPVAGPSVFLFPPKPKDTLMISRTPEVTCVVVDVSHEDPEVQFNWYVDGVEVHNAKCKPREEQFNSTFRVVSVLTVVHQDWLNGKEYKCKVSNKGLPAPIEKTISKTKGQPREPQVYTLPPSREEMTKNQVSLTCLVKGFYPSDIAVEWESNGQPENNYKTTPPMLDSDGSFFLYSKLTVDKSRWQQGNVFSCSVMHEALHNHYTQKSLSLSPGK light: QIVLTQSPAILSLSPGERATLSCSASSSVTSNYLYWYQQKPGSSPKLLIYSTSNLASGVPARFSGSGSGTSYTLTISSLEAEDAASYFCHQWSSYPPTFGSGTKLEIKRTVAAPSVFIFPPSDEQLKSGTASVVCLLNNFYPREAKVQWKVDNALQSGNSQESVTEQDSKDSTYSLSSTLTLSKADYEKHKVYACEVTHQGLSSPVTKSFNRGEC
